In patent US5543498A, “Peptides to overcome inhibition of nerve growth” (The General Hospital Corporation, priority 1995, dated 1996):
“Also recorded” adds a separate entry of the source. Each block holds one substance with its values, some of them ahead of it. No end group written: not given here.

What was measured:
[1] = target: Go (Homo sapiens, UniProt P09471); assay: GTPγ S binding to Go (nitrocellulose filtration assay); format: biochemical; details: for effect of mutant decapeptides on GTPγ S binding to Go: peptide 250 μM, binding without peptides = 100%; for effect on GTPγ S binding to Go, dose response: oxidized (performic acid) vs control peptide, same concentration range
Procedure: The GAP-43 1-10 peptide was oxidized using performic acid according to the procedures of A. Roher et al., Proc. Natl. Acad. Sci. USA 83:2662 (1986). Briefly, 10 mM peptide was incubated with formic acid solution containing 3% H2 O2 at 25° C. for one hour. The activation state of Go was determined in a nitrocellulose filtration assay as described by S. M. Strittmatter et al., Proc. Natl. Acad. Sci. USA 90:5327 (1993).
Both cysteine residues at positions 3 and 4 in the native GAP-43 1-10 peptide were replaced with methionine, tyrosine, aspartate, glutamate, lysine, arginine, serine, and tryptophan. These mutant peptides were tested for their ability to influence GTPγ S binding to Go.

[2] = system: Chick dorsal root ganglion (DRG) neurons; format: cell-based
Procedure: Chick DRGs from embryonic day 7 (E7) were explanted onto laminin-coated chamber slides in F12 medium with 10 ng/ml nerve growth factor and 10% fetal bovine serum. After 20 hours, peptide solutions or phosphate-buffered saline (PBS) in 1 mM DTT was added to the explants (225 μl) and the mixture incubated at 27° C. for one hour. BME, prepared following the procedure of J. A. Raper and J. P. Kapfhammer, Neuron 2:21 (1990), was added to the explants and incubated for 30 minutes. For each explant, all growth cones were scored as collapsed or fan-shaped (M. Igarashi et al., Science 259:77 (1993)).
In another series of experiments the GAP-43 1-10 peptide was added into the culture medium at 10^-8 M one hour prior to the addition of BME. After 30 minutes incubation with BME, the explant was fixed in glutaraldehyde and its growth cones were scored.
After exposing the PTX treated neurons to BME and the GAP-43 1-10, the amount of growth cone collapse was measured.
The procedure described in Example 2 was followed with the exception that one hour prior to the addition of BME (0.15 mg protein/ml) to the DRG culture medium, either the methionine or tyrosine mutant peptide was introduced at a concentration of 10^-4 M.

Sequence of Go (P09471 whole entry): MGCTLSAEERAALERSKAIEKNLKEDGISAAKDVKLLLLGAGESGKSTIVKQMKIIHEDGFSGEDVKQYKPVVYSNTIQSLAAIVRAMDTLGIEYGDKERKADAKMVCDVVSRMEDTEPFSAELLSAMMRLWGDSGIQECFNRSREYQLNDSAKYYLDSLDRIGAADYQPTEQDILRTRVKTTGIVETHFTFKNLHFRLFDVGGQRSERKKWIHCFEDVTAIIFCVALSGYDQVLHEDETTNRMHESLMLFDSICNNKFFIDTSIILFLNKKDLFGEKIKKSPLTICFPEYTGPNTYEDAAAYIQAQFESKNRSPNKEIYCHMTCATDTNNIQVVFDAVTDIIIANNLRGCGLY

effect of mutant decapeptides on GTPγ S binding to Go ([1]; listed as tyrosine): inhibits GTPγ S binding to Go
Substance: [3Y, 4Y]GAP43 (1-10) (MLYYMRRTKQ) [peptide-Y, GAP-43 1-10 peptide with both cysteines at positions 3 and 4 replaced with tyrosine]
effect of mutant decapeptides on GTPγ S binding to Go [1]: attenuate GTPγ S binding to Go; also recorded: antagonist of G protein stimulation
shift of BME dose response: BME needed to cause 50% collapse ([2]; DRG, 10^-4 M peptide, relative to no peptide): about twice
inhibition of growth cone collapse induced by BME ([2]; DRG, BME 0.15 mg protein/ml, peptide 10^-4 M one hour before BME): approximately 30%
effect of the peptides by themselves on growth cones ([2]; doses used for the BME dose response (FIG. 3C)): do not have any evident effect by themselves

Substance: pertussis toxin [PTX, reference compound]
effect on growth cone collapse induced by BME ([2]; PTX 20 ng/ml, BME 0.075 mg/ml): do not inhibit the collapse induced by BME
effect on GAP-43 1-10 peptide potentiation of BME-induced growth cone collapse ([2]; PTX 20 ng/ml, BME 0.075 mg/ml plus 10^-8 M GAP-43 1-10 peptide, listed as pertussis toxin): blocks

effect on GTPγ S binding to Go, dose response ([1]; listed as Oxidation of the GAP-43 1-10 N terminus): dose-dependent inhibition
effect on GTPγ S binding to Go, dose response ([1]; listed as Oxidation of the GAP-43 1-10 N-terminus): dose-dependent inhibition
effect on GTPγ S binding to Go, dose response ([1]; listed as oxidation of the peptide by performic acid): inhibitory for Go
Substance: oxidized GAP-43 1-10 peptide: GAP-43 1-10 peptide oxidized using performic acid (MLCCMRRTKQ; also: oxidized using performic acid)
